Bounds are passed on as bounds.

The nature of the data set: soluble fraction after stress (log2 fold change); higher = more stays soluble; pooled small domains, quantitative proteomics. To be noted: stress: pH 4. Summed up: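 Aggregation propensity is read out as the fold change in how much of each domain remains soluble after acid stress. The custom small-domain libraries were pooled, held at pH 4 and analysed with high-throughput quantitative proteomics. On the log2 scale used, higher values mean more of the domain stayed soluble.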
Regarding “HMSATQDAAIAVRIRDILSELDGYEDVTVTVTSGIVTMRGTTLDSEKIARLNDLTGRVEGVVAIENSVTET”, the “soluble fraction (log2)” value was -2.31.

On to “HMSAVIGTATVTTSSGSLNLRESASLYSRVIRTIPRGATVDVLSRDTSWSRVRYAGSEGYVLNQYLTFQT”, for which the “soluble fraction (log2)” value is at least 0.43.

In the case of “HMSDAGMNQIGDMFRAPDLMAKLAMNPATREYVSQPDFLAMMEEVKRNPSALNNHLRDPRMMNVLSVAM”, the “soluble fraction (log2)” value was -0.48.

Consider “HMSDAPLLSIRSLAVAFDGTRVVDGVSFDVARGEVVALVGESGSGKTVTGLSLLDLVPPPGRRVGGEV”, for which the “soluble fraction (log2)” value is -0.025.

As to “HMSDDAVVRMRVPEDALGLSLRETDFRQRFGVYVLAIETRDGKLLAPPDPQRPLGKDDVLVVIQKR”, the “soluble fraction (log2)” value was -0.279.

“HMSDDLLTGLDAYSRGDWTTATASFERVLTTADPNNRTEALYWLVMSETSAQNYQRALNYANTFL”: the “soluble fraction (log2)” value is -0.887.

On to “HMSDDSTIVELLASSLRRDIAFGTLLPDQKLKLNELRTRYGGSIHSMRETLRILSAEGLVEATAQRGFRVT”, for which the “soluble fraction (log2)” value was -0.395.

“HMSDEIQLQFIQISIFKDHPWADMQIKDMNIIPDLLIVMILRDGERIIPNGNTRIMPGDMVIITAMSANT”: the “soluble fraction (log2)” value was -1.7.

On to “HMSDESALIAAIEKAIAAQPETAEKVRNGHLPAAGALIGSVMKETKGQADAARVRELLLGLLGQ”, for which the “soluble fraction (log2)” value was determined as 0.0231.

In the case of “HMSDESRAEIVSSAKRLFQQYGYKKTTVSDIAKAMGKVKSAIYYYFPDKESLLRAVIDEEVG”, the “soluble fraction (log2)” value amounted to 0.132.

As for “HMSDFEASDPALLREGMRVQHLNFGKGTVITIEGAGANKKASVAFDGVGTKQLMLRFARLKIIYE”, the “soluble fraction (log2)” value is -0.622.

On to “HMSDFKDIILKLRNEQGFTQEKLADVLGTSKSTVGMWEMGVRFPSKELYEAIADYFNVDIDYLYGRTDIR”, for which the “soluble fraction (log2)” value was -1.35.

Take “HMSDGYETLVNMAKPFLNNSKQITENDITDAVNTVSVMLKKRYDMTDEDIRKAVSELLHFYA”: the “soluble fraction (log2)” value is -0.791.

For the sequence “HMSDIDHIAGRRIRQARLNAGMTLETLASQAGISKALLSKIENSKVSSPLATFSKISKVLGVPLSDLLKE”, the “soluble fraction (log2)” value is 0.204.

On to “HMSDILALMPGTIKQILVAPGDSVKRGQTVIIMESMKMELTIAAHRDGVVKRIPVEQGGQVEKGMRLLELE”, for which the “soluble fraction (log2)” value is -0.263.

As to “HMSDIPEGYMSRVQLGDEWGIHLATFDKAVIAVKEKLGTVVFIDKSNNTTAGYSPEQQTIIYDWLAEN”, the “soluble fraction (log2)” value amounted to 0.29.

As to “HMSDKNVYGKYKNVFLSDEEFSELKQFYPNDWSDRIETLSEGIELKGYKYKNYLLAIKKWAEYEGQKAD”, the “soluble fraction (log2)” value was -0.77.

Turning to “HMSDKPIFIDTAGIAALSAIGFSKYQATIIFNYIKKGGAIYTVKDLAKIYSIDQKTIDLTQSKIIFS”, the “soluble fraction (log2)” value was determined as 0.22.

Regarding “HMSDKPRYYINGNTLFISDKSVKKVLFSDLSGRSILHTTETAINIATFRGAHILTVIYTDGSTKSEVIF”, the “soluble fraction (log2)” value turned out to be 0.235.

For the sequence “HMSDLLYAHPTEKGFQLVNVTQKVVMVILKTAAPNVYTVKGKNAIVFKEGNSWFYSENHNKKLLNIK”, the “soluble fraction (log2)” value is -0.1.

For “HMSDLQTGDINQDGTVDEKDLSLLHSYNLELIKTISNAADLNEDGVINGLDEAYLKRLFLQNSDP”, the “soluble fraction (log2)” value is -0.142.

For the sequence “HMSDLTEVIVKFSGDIQPIRQDLDAQVEILLKGYAIITLSPNKIGRLYSYPQIESIEIPKNLYI”, the “soluble fraction (log2)” value was -0.833.

Turning to “HMSDPASLQRRLMSDPELTARILDSPFTRSLLDDPNLLRQMVNANPQLRRAMDANPQLRHAL”, the “soluble fraction (log2)” value is -0.261.

As for “HMSDPEAFIRQTVAAAEPEGIALSVLGKRVRGKFRTFKLRDLGYAQFRPYLGDLDGIKVEQRDGQSYARLD”, the “soluble fraction (log2)” value was found to be 0.045.

“HMSDPSRKADFIAALSSLGGSAGNGKLREQLGWDEPTYDAVKQTLLDEGAITNGRGRGGSVALAG”: the “soluble fraction (log2)” value came to 0.146.

As for “HMSDPTDRLVLEAALKALGEEERQVVLLHAASGLKHREIARDLGLPLSTVLSRYSRALKKLQRYLTEEGVH”, the “soluble fraction (log2)” value was -0.461.

Consider “HMSDPVDDLLLRISQQAGVARGQLVAELNMLVQDRFGGNLRHEAAAVLMAKRYGIEFRDLLPALREHLVKN”, for which the “soluble fraction (log2)” value was -0.469.

Regarding “HMSDPVKQVAMRILDLREISDYTVDKMAEVLNVPVEEYRKYESGEVDMPISFLVKIGEVFHVDMTELLTG”, the “soluble fraction (log2)” value is -0.679.

(Values after the domain aggregation screens of Martell et al. (2025).)
